Paper PMC5536344

Legend:
[1] = target: HIV-1 Pr55^Gag (untagged full length wild type Gag polyprotein) (HIV-1); experiment: SEC
[2] = target: HIV-1 Pr55^Gag (untagged full length wild type Gag polyprotein) (HIV-1); experiment: SEC-MALS
[3] = target: HIV-1 Pr55^Gag with a TEV-cleavable C-terminal hexahistidine tag, uncleaved (HIV-1); experiment: SEC
[4] = target: HIV-1 Pr55^Gag with a non-cleavable C-terminal hexahistidine tag (HIV-1); experiment: SEC
[5] = target: HIV-1 Pr55^Gag-ENLYFQ (Pr55^Gag-TEV-His after removal of the tag with TEV protease) (HIV-1); experiment: SEC

HIV-1 Pr55^Gag (untagged full length wild type Gag polyprotein) (natural protein)
stoichiometry N [1]: 2 | stoichiometry N [2]: 2

HIV-1 Pr55^Gag with a TEV-cleavable C-terminal hexahistidine tag, uncleaved (natural protein)
stoichiometry N [3]: 2

HIV-1 Pr55^Gag with a non-cleavable C-terminal hexahistidine tag (natural protein)
stoichiometry N [4]: 2

HIV-1 Pr55^Gag-ENLYFQ (Pr55^Gag-TEV-His after removal of the tag with TEV protease) (natural protein)
stoichiometry N [5]: 2
